In US20140348747A1:
Values joined by “and” are separate entries in the source; they are usually repeats but may differ in a detail not shown here. Equal values may be shown once. Read-outs that look alike come from different tables or passages of the source.

Tests used:
Details in all cases: modification not given
NLpoly 11S (12-A51T) = target: T1, NLpoly 11S (12-A51T)
T1 chain: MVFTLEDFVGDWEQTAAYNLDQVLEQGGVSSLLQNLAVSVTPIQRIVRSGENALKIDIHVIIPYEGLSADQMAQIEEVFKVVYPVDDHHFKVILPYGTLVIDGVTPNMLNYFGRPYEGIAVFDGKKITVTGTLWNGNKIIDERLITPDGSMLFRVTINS

[1] = target: T2, wild-type non-luminescent polypeptide (WT fragment of residues 1-156 of NanoLuc)
T2 chain: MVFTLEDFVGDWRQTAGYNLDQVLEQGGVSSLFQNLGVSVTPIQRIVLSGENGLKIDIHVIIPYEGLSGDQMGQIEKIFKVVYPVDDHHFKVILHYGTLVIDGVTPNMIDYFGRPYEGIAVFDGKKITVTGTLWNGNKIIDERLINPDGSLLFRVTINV

H93P = target: T3, H93P
T3 chain: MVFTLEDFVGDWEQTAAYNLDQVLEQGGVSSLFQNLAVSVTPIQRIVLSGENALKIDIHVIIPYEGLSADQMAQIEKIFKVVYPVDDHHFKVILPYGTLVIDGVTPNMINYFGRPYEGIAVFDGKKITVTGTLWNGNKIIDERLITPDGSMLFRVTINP

VTGWR = target: T4, VTGWR
T4 chain: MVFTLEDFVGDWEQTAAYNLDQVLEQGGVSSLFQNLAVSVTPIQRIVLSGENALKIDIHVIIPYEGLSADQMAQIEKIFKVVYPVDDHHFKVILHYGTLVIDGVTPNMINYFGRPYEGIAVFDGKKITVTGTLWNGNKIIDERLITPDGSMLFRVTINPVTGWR

H57R = target: T5, H57R
T5 chain: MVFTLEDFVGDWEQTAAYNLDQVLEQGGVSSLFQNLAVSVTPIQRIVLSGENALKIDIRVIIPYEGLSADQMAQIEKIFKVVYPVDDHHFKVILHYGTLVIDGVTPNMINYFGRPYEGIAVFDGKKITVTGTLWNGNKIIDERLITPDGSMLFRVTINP

L46R = target: T6, L46R
T6 chain: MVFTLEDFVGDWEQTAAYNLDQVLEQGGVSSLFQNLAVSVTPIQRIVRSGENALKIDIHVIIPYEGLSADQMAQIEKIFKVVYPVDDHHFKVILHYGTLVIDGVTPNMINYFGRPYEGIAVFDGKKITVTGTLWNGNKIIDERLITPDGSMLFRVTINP

P157S = target: T7, P157S
T7 chain: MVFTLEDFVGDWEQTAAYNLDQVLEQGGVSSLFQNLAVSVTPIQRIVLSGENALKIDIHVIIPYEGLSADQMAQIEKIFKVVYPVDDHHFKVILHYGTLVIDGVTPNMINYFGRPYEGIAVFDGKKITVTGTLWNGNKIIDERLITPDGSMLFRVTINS

[2] = target: T2, wild-type non-luminescent polypeptide …
A51T = target: T8, A51T
T8 chain: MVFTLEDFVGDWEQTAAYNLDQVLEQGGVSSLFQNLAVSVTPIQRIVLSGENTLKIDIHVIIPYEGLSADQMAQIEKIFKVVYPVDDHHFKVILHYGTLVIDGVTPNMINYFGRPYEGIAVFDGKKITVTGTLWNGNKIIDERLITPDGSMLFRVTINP

[3] = target: T2, wild-type non-luminescent polypeptide …
D2 = target: T9, D2
T9 chain: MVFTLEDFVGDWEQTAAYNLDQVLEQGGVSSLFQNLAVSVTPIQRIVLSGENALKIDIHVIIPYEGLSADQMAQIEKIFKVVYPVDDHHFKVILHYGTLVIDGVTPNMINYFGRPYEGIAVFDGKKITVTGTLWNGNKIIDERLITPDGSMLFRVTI

AA = target: AA
5P+V = target: 5P+V
V58A = target: T10, V58A
T10 chain: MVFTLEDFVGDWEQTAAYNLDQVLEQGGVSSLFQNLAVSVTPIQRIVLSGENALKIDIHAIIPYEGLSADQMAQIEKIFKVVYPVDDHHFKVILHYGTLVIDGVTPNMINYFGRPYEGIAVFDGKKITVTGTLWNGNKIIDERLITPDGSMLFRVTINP

VTGW = target: T11, VTGW
T11 chain: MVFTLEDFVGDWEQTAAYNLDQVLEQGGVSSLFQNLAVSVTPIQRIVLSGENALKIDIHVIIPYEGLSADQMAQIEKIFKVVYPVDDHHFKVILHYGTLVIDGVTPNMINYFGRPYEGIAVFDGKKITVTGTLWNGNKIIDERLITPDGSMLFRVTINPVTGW

VA = target: VA
F31L = target: T12, F31L
T12 chain: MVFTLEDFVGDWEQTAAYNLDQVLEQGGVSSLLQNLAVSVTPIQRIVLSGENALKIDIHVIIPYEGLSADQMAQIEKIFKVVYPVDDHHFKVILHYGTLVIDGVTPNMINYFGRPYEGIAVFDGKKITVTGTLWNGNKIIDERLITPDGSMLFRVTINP

F31L+H93P = target: T13, F31L+H93P
T13 chain: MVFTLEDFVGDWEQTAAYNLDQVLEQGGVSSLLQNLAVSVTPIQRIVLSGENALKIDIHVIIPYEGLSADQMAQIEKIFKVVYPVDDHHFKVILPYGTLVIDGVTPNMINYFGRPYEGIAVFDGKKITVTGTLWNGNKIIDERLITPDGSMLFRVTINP

5P+VTG = target: 5P+VTG
P157H = target: T14, P157H
T14 chain: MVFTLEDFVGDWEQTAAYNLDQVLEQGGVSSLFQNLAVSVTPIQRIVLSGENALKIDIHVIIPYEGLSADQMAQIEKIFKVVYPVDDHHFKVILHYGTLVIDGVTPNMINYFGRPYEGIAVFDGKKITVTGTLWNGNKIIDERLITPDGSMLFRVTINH

VT = target: VT
5P+VT = target: 5P+VT

Kd (NLpoly 11S (12-A51T)): 26 µM
Kd [1]: 1750 µM
Kd (H93P): 0.024 µM
Kd (VTGWR): 0.0133 µM
Kd (H57R): 0.0141 µM
Kd (L46R): 0.0184 µM
Kd (P157S): 0.0152 µM
Kd [2]: 0.341 µM and 1.05 µM
Kd (A51T): 0.0188 µM
Kd [3]: 0.784 µM
Kd (D2): 0.0102 µM
Kd (AA): 0.0113 µM
Kd (5P+V): 0.0249 µM
Kd (V58A): 0.0152 µM
Kd (VTGW): 0.013 µM
Kd (VA): 0.0146 µM
Kd (F31L): 0.0148 µM
Kd (F31L+H93P): 0.0172 µM
Kd (5P+VTG): 0.026 µM
Kd (P157H): 0.0179 µM
Kd (VT): 0.0131 µM
Kd (5P+VT): 0.0254 µM
Binder: NVSGWRLFKKISN [NLpep78]
